Results published in article doi:10.1101/2021.01.25.428185 (bioRxiv, 2021).
Substitutions are numbered along the chain they refer to.

What was measured:
[1] = molecular target: T1, GST-Rab11A(CN), mouse Rab11A(N124I), GDP-loaded (mouse, UniProt P62492 1-216, N124I); assay: pull-down
T1 sequence (looked up): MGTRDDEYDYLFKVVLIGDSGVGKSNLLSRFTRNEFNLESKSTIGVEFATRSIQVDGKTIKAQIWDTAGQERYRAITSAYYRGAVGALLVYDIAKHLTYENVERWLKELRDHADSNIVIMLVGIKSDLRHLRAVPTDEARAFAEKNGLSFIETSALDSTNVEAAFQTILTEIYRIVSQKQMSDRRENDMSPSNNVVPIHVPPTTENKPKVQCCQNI

[2] = molecular target: T2, GST-Rab11A(CA), mouse Rab11A(Q70L), GTPγS-loaded (mouse, UniProt P62492 1-216, Q70L); assay: pull-down
T2 sequence (looked up): T1 sequence (looked up) with Q70L, I124N

B1: T7-tagged Rab11-FIP2-C (domain or fragment, mouse, UniProt G3XA57 389-512, looked up)
chain: PSAFSENRQDYFEYESTNPFTAKFRASTIMPSSSFHVNPTSSEDLRKIPDNNPFDATAGYRSLTYEEVLQELVKHKELLRRKDTHIRELEDYIDNLLVRVMEETPSILRVPYEPSRKAGKFTNS
binding result [1]: binds
binding result [2]: binds
